Values of other authors as cited in article PMC4271846.
pKd: −log10 of the molar value.

Target: tau (Homo sapiens) (UniProt P10636)
Experiment: SPR

pKd: 4.34
Substance: tau (from UniProt P10636)
